By Kd is commonly meant a measure of binding affinity in units of concentration.

Our source for the Kd values is article PMC10786891, “Massively parallel profiling of RNA-targeting CRISPR-Cas13d”.

Residue numbers refer to the chain shown, from its start. Names and notes keep the numbering of the source.

T1: EsCas13d, nuclease-dead (Eubacterium siraeum, UniProt B0MS50, R295A;H300A;R849A;H854A)
T1 sequence: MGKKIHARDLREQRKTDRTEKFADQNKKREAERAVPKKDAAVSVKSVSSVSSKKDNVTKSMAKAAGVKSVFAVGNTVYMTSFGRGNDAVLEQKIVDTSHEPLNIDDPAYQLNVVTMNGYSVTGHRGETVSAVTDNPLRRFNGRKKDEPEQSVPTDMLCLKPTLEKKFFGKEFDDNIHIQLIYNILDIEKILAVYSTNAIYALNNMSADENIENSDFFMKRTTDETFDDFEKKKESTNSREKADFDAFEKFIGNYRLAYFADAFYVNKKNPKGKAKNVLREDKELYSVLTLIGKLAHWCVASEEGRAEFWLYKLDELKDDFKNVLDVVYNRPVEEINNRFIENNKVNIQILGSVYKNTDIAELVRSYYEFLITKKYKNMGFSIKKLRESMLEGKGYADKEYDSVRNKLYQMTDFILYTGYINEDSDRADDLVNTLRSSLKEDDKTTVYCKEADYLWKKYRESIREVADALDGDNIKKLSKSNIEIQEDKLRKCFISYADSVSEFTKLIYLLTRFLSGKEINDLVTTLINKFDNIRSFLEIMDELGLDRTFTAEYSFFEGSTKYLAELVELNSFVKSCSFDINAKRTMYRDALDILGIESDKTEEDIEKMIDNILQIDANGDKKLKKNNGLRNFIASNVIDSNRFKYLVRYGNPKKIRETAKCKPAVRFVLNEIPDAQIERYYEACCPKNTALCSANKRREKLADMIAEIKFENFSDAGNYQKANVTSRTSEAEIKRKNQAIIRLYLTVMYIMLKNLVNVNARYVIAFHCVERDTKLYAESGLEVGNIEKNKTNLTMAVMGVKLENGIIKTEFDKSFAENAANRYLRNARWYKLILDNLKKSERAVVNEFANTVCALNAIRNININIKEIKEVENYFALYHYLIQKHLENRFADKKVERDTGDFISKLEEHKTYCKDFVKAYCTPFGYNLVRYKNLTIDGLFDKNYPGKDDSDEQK

B1: target 1 insG 3' of 7,insC 3' of 1 (mixed)
RNA 1: CACCCGUGCAAAAAUGCAGGGGUCUAAAACUGAGCGGAUAACCUCUCUAUGG
RNA 2: GGGAAUGGAUCCACAUCUACGAAUUCGUACCAUAGAGAGGUUAUCGCGCUCACCCGAGAUCGGAAGAGCACACGU
B2: target 1 insC 3' of 12,insG 3' of 8 (mixed)
RNA 1: B1 RNA 1
RNA 2: GGGAAUGGAUCCACAUCUACGAAUUCGUACCAUAGAGAGGCUUAUGCCGCUCACCGAGAUCGGAAGAGCACACGU
B3: target 1 U10A,A16C (mixed)
RNA 1: B1 RNA 1
RNA 2: GGGAAUGGAUCCACAUCUACGAAUUCGUACCAUAGCGAGGUAAUCCGCUCACCGAGAUCGGAAGAGCACACGU
B4: target 1 insC 3' of 14,insG 3' of 2 (mixed)
RNA 1: B1 RNA 1
RNA 2: B2 RNA 2 with G39C, C41G, G46C, C48G, G49C, C50U, U51C, C52G
B5: target 1 insU 3' of 15,insA 3' of 7 (mixed)
RNA 1: B1 RNA 1
RNA 2: B2 RNA 2 with A38U, G39A, C41G, G46C, C47A
B6: target 1 C4U,C7A (mixed)
RNA 1: B1 RNA 1
RNA 2: B3 RNA 2 with C36A, A42U, C45A, C48U
B7: target 1 insG 3' of 9,insU 3' of 4 (mixed)
RNA 1: B1 RNA 1
RNA 2: B1 RNA 2 with U44G, C45U, G46C, C51U, A52C, C53A
B8: target 1 insU 3' of 14,insG 3' of 2 (mixed)
RNA 1: B1 RNA 1
RNA 2: B2 RNA 2 with G39U, C41G, G46C, C48G, G49C, C50U, U51C, C52G
B9: target 1 G15A,A16G (mixed)
RNA 1: B1 RNA 1
RNA 2: B3 RNA 2 with C36G, G37A, A42U
B10: target 1 insU 3' of 20,insG 3' of 11 (mixed)
RNA 1: B1 RNA 1
RNA 2: GGGAAUGGAUCCACAUCUACGAAUUCGUACCAUUAGAGAGGUGUAUCCGCUCACCGAGAUCGGAAGAGCACACGU
B11: target 1 C6A,G12U (mixed)
RNA 1: B1 RNA 1
RNA 2: B3 RNA 2 with C36A, G40U, A42U, C46A
B12: target 1 insC 3' of 18,insU 3' of 4 (mixed)
RNA 1: B1 RNA 1
RNA 2: B10 RNA 2 with U34A, A35C, G43U, U44A, A45U, U46C, C48G, G49C, C50U
B13: target 1 insC 3' of 20,insC 3' of 11 (mixed)
RNA 1: B1 RNA 1
RNA 2: B10 RNA 2 with U33C, G43C
B14: target 1 G17A,C21A (mixed)
RNA 1: B1 RNA 1
RNA 2: B3 RNA 2 with C31A, G35A, C36A, A42U
B15: target 1 insA 3' of 11,insG 3' of 8 (mixed)
RNA 1: B1 RNA 1
RNA 2: B2 RNA 2 with C41U, U42A
B16: target 1 insU 3' of 22,insU 3' of 12 (mixed)
RNA 1: B1 RNA 1
RNA 2: B10 RNA 2 with C31U, A32C, U33A, G43U
B17: target 1 U3A,G5U (mixed)
RNA 1: B1 RNA 1
RNA 2: B3 RNA 2 with C36A, A42U, G47U, U49A
B18: target 1 U10G,A14G (mixed)
RNA 1: B1 RNA 1
RNA 2: B3 RNA 2 with C36A, A38G, A42G
B19: target 1 insU 3' of 21,insG 3' of 9 (mixed)
RNA 1: B1 RNA 1
RNA 2: B10 RNA 2 with A32U, U33A, G43U, U44A, A45G
B20: target 1 del8,del11 (mixed)
RNA 1: B1 RNA 1
RNA 2: GGGAAUGGAUCCACAUCUACGAAUUCGUACCAUAGAGAGGUACCGCUCACCGAGAUCGGAAGAGCACACGU
B21: target 1 A14G,U19C (mixed)
RNA 1: B1 RNA 1
RNA 2: B3 RNA 2 with U33C, C36A, A38G, A42U
B22: target 1 insC 3' of 17,insA 3' of 10 (mixed)
RNA 1: B1 RNA 1
RNA 2: B10 RNA 2 with U34A, A35G, G36C, G43U, U44A
B23: target 1 del11 (mixed)
RNA 1: B1 RNA 1
RNA 2: GGGAAUGGAUCCACAUCUACGAAUUCGUACCAUAGAGAGGUAUCCGCUCACCGAGAUCGGAAGAGCACACGU
B24: target 1 insG 3' of 7,insA 3' of 2 (mixed)
RNA 1: B1 RNA 1
RNA 2: B1 RNA 2 with C53A
B25: target 1 A16G,C22A (mixed)
RNA 1: B1 RNA 1
RNA 2: B3 RNA 2 with C30A, C36G, A42U
B26: target 1 U3G,A9U (mixed)
RNA 1: B1 RNA 1
RNA 2: B3 RNA 2 with C36A, A42U, A43U, U49G
B27: target 1 C4G,U11C (mixed)
RNA 1: B1 RNA 1
RNA 2: B3 RNA 2 with C36A, U41C, A42U, C48G
B28: target 1 insC 3' of 12 (mixed)
RNA 1: B1 RNA 1
RNA 2: GGGAAUGGAUCCACAUCUACGAAUUCGUACCAUAGAGAGGCUUAUCCGCUCACCGAGAUCGGAAGAGCACACGU
B29: target 1 del3,del7 (mixed)
RNA 1: B1 RNA 1
RNA 2: B20 RNA 2 with A42U, C43A, C44U, G45C, C46G, U47C
B30: target 1 C4A,C7G (mixed)
RNA 1: B1 RNA 1
RNA 2: B3 RNA 2 with C36A, A42U, C45G, C48A
B31: target 1 insG 3' of 14,insC 3' of 9 (mixed)
RNA 1: B1 RNA 1
RNA 2: B2 RNA 2 with C41G, U45C, G46U

The data set concerns the target T1, EsCas13d, nuclease-dead. The experiment in a line: crRNA (strand 1, pre-loaded); Mg2+; 40 mM Tris-HCl pH 7.5, 150 mM NaCl, 6 mM MgCl2, 1 mM DTT, 0.1% Tween-20, 0.2 mg/ml BSA; 25 C; 10 min per concentration, then washed. The note with it: tags: His6-TwinStrep-SUMO cleaved; N-terminal SNAP kept (SNAP-Surface 488); label: 3' end held by stalled T7 RNA polymerase.
B1 showed a Kd of 7.6 ± 0.5 nM.
In the case of B2 it was 15 ± 0.6 nM; in that of B3, 68 ± 10 nM; in that of B4, 62 ± 23 nM.
In the case of B5 it was 8.2 ± 0.6 nM; in that of B6, 11.2 ± 0.8 nM; in that of B7, 12.2 ± 0.4 nM.
B8 returned a Kd of 44 ± 7 nM.
Consider B9, for which binding was put at a Kd of 51 ± 5 nM.
Regarding B10, the Kd worked out at 51 ± 12 nM.
For B11, the equilibrium dissociation constant (Kd) came out at 10.7 ± 0.5 nM.
In the case of B12 it was 25.8 ± 1.8 nM; in that of B13, 11.2 ± 1.1 nM.
In the case of B14, the Kd came out at 56 ± 7 nM.
For B15, the Kd was 35.6 ± 2.3 nM. Compared with the last molecule, the Kd is about 1.6-fold lower.
In the case of B16, binding was characterised by a dissociation constant (Kd) of 26.9 ± 1.6 nM.
B17 came in with an equilibrium dissociation constant (Kd) of 14.4 ± 1 nM.
The molecule B18 displayed a dissociation constant Kd of 23.3 ± 1.3 nM.
In the case of B19, the affinity, expressed as Kd, was 77 ± 19 nM.
In the case of B20 it was 25.7 ± 1.7 nM; in that of B21, 63 ± 14 nM.
In the case of B22 it was 43.2 ± 3.4 nM; in that of B23, 15.9 ± 0.9 nM; in that of B24, 6.36 ± 0.31 nM.
Molecule B25 showed a Kd of 51 ± 10 nM.
In the case of B26 it was 7.5 ± 0.7 nM; in that of B27, 9 ± 0.8 nM.
In turn, B28 gave a Kd of 8.3 ± 0.5 nM.
In the case of B29 it was 4.94 ± 0.21 nM; in that of B30, 9.6 ± 0.4 nM.
Molecule B31 came in with a Kd of 12.7 ± 0.6 nM.
